The experiment concerns the target wildtype human transient receptor potential ankyrin 1 channel subunit (hTRPA1_WT) (human) (UniProt O75762). The experiment can be described thus: co-IP.

As for “hTRPA1_27B splice variant, HA-tagged (natural protein)”, the normalized fold of enrichment (against HA-tagged WT) was determined as 0.62 fold.
With “hTRPA1_27A splice variant, HA-tagged (natural protein)”, the normalized fold of enrichment (against HA-tagged WT) came out at 0.71 fold.

The values are drawn from paper PMC8208096.
